Source: the supplement of paper PMC10567573

B1: TRIM15 (parent)
chain: LSQMGAQSSGKILLCPLCQEEEQA
B2: FLOT1 (parent)
chain: QMAKKAEAFQLYQEAAQLDMLLEK

Variants of: B1
Assay: protein stability index of a GFP-peptide fusion (GPS, HEK-293T) (PSI 1-6); higher = more stable
Settings: c terminus: a fixed tail appended
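Further: lentivirally expressed fusions sorted by FACS into six bins by GFP to DsRed ratio, PSI derived from sequencing read proportions per bin multiplied by bin number.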

Protein stability index of substitutions, site by site:
A24: E 3.29, F 2.55, G 3.51, H 3.59, I 3.87, K 4.51, L 2.63, M 2.84, N 3.88, P 3.45, Q 4.37, R 2.99, S 3.94, T 3.72, V 3.28, W 2.44, Y 3.55

Variants of: B2
Assay: as above
Settings: c terminus: a fixed tail appended

Protein stability index: each site, then its substitutions
Q1: A 2.01, D 1.9, E 2.19, H 2.21, I 2.83, L 2.5, N 1.8, P 2.05, R 1.69, S 3.78, T 2.27, V 2.23, Y 2.96
M2: A 1.46, C 1.61, D 2.45, E 2.07, F 1.78, G 2.78, H 1.57, I 1.36, K 2.4, L 1.84, N 1.92, P 1.46, Q 2.01, S 1.14, T 1.76, V 1.22, Y 2.1
A3: C 2.81, F 1.16, H 1.93, I 1.88, L 2.63, M 2.44, N 3.51, P 1.63, Q 1.93, T 1.16, V 1.29, W 1.21, Y 2.83
K4: A 1.43, C 1.86, D 2.94, E 2.56, F 1.68, G 2.15, H 2.12, I 2.27, M 1.55, N 2.38, P 2.3, Q 1.51, T 1.15, V 1.47, Y 2.25
K5: C 2.68, D 2.1, E 2.21, F 2.8, G 1.92, H 1.75, I 2.49, L 3.38, N 1.42, P 2.83, Q 1.59, R 2.3, S 1.22, T 2.01, V 1.78
A6: C 1.53, D 1.57, E 1.92, F 1.99, H 1.99, K 2.43, M 1.32, N 3.7, P 2.37, Q 1.91, R 1.52, T 1.38, V 1.75, W 2.21, Y 1.53
E7: A 2.46, C 1.86, D 1.55, H 2.24, I 1.4, L 2.95, M 1.64, N 2.05, P 2.07, R 1.22, S 4, T 1.36, V 1.91, Y 1.8
A8: C 1.7, E 2.49, F 3.96, H 1.42, I 2.05, L 2.55, M 2.88, N 1.4, P 1.98, Q 1.64, S 1.49, T 1.83, V 1.2, W 1.91, Y 1.03
F9: A 2, C 1.41, D 3.04, E 3.65, H 2.26, I 1.88, K 2.63, L 2.37, M 1.72, N 1.82, P 2.08, Q 1, S 2.01, T 2.11, W 1.86
Q10: A 2.07, C 1.74, D 2.01, E 2.49, F 1.28, G 1.72, H 2.03, K 1.32, L 2.09, M 1.52, N 2.03, P 2.08, R 1.87, S 2.06, T 2.79, V 2.87, Y 2.59
L11: A 2.03
